Experimental findings from US20240368258A1 (RUTGERS THE STATE UNIVERSITY OF NEW JERSEY, published 2024) are described below.

Assay [1] has as its target T1, GRP78 on the surface of MCF-7 human breast cancer cells (human, UniProt P11021 19-654).
T1 construct: whole, on cells; also called surface GRP78; 78 kDa glucose-regulated protein
Briefly: whole cell phage-ELISA, monovalent phage on MCF-7 cells. As to the method:
FIG. 8. Phage binding on cells. […] Single scFv clones were produced as monovalent phage and tested for binding on MCF-7 in vitro. Briefly, cells were seeded on 96-well plate, blocked and incubated with phage displaying the scFv of interest at different concentrations. After washing, cell surface bound phage were detected with the antiM13-HRP conjugated mAb (GE).
Single scFv clones were produced as monovalent phage and tested for binding on MCF-7 in vitro. Briefly, cells were seeded on 96-well plate, blocked and incubated with phage displaying the scFv of interest at different concentrations. After washing, cell surface bound phage were detected with the antiM13-HRP conjugated mAb (GE). […] Anti-GRP78 phage bind specifically to cells expressing surface GRP78.
(An ELISA detects its analyte on a solid surface through an enzyme-linked reagent.)

The target in assay [2] is T2, EphA5 expressed on H460 human lung carcinoma cells (human, UniProt P54756 25-1037).
T2 construct: whole, on cells; H226 cells served as the EphA5-negative cell line; also called native EphA5 target; endogenous EphA5 expressed on the cell surface
T2 sequence (P54756 25-1037): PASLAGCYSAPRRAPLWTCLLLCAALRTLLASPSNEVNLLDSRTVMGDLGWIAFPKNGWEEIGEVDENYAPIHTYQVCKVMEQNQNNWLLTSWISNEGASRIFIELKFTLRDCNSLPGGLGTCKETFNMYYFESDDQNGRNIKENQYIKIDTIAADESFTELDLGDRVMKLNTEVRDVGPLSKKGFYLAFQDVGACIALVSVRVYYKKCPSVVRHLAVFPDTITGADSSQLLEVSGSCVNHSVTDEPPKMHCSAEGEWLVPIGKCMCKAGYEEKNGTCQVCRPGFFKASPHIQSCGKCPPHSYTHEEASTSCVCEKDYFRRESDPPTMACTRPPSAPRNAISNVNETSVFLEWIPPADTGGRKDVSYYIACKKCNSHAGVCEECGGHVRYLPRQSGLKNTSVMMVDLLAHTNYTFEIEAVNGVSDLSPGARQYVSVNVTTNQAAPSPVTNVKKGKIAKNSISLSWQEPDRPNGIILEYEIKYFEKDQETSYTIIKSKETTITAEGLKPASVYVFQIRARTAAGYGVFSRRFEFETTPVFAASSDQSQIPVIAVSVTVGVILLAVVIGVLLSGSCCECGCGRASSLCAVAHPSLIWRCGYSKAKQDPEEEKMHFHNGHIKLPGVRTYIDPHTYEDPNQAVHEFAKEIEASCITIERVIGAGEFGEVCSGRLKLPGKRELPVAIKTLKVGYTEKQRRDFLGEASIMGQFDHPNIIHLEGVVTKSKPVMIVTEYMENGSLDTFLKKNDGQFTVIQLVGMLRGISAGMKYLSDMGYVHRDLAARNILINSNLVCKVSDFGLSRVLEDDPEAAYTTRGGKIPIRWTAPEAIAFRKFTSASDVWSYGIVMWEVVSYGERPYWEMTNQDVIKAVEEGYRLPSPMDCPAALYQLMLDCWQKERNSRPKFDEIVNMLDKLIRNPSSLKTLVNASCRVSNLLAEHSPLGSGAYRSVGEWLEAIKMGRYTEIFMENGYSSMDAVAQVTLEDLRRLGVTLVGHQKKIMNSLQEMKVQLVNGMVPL
Briefly: whole cell phage-ELISA, monovalent phage on H460 cells. As to the method:
Single scFv clones were produced as monovalent phage and tested for binding on H460 human lung carcinoma (EphA5 positive) and H226 human lung squamous cell carcinoma (EphA5 negative) cell lines in vitro. Briefly, cells were seeded on 96-well plate, blocked and incubated with phage displaying the scFv of interest at different concentrations. After washing, cell surface bound phage were detected with the antiM13-HRP conjugated mAb (GE).

T1 sequence (P11021 19-654): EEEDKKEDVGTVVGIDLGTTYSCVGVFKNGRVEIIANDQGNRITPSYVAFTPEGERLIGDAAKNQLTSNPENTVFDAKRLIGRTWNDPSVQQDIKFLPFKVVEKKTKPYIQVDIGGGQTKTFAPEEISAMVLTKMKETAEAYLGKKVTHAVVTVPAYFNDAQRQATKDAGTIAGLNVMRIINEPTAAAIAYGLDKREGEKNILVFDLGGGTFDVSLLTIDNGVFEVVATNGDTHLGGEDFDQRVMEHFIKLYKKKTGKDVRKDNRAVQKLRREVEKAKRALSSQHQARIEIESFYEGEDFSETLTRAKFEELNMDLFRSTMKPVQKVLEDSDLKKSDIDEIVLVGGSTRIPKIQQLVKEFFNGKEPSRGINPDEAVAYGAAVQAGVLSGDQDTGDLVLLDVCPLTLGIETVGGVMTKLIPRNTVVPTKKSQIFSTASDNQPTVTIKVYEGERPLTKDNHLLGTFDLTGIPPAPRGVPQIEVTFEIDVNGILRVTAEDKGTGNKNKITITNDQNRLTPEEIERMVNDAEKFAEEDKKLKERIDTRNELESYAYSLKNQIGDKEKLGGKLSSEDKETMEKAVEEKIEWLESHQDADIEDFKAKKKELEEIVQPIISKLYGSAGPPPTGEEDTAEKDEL

B1: antiGRP78_F6 scFv (scFv)
scFv: SYELTQPHSVSVAPGQTARITCGGDNIGSKSVHWYQQRPGQAPVLVVYDDSDRPSGIPERFSGSNSENTATLTISGVEAGDEADYYCQVWDSTSHHVVFGGGTKLTVLSGGSTITSYNVYYTKLSSSGTQVQLQQSGPGLVKPPQTLSLTCAISGDSVSSNSAAWNWIRQSPSRGLEWLGRTYYRSKWYNDYAVSVKSRITINPDTSKNQFSLQLNSVTPEDTAVYYCARDPYYYDSSGYYYFDAFDIWGQGTMVTVSS
As to B1, the binding result in assay [1] was “binds”.

B2: antiGRP78_B4 scFv (scFv)
scFv: SYVLTQPPSVSVAPGKTATITCGGDDIGSKSVHWYQQKPGQAPVLVVYDDGDRPSGIPERFSGSNSGNTATLAISRVEAGDEADYYCQVWDSSSDQYVFGSGTKLTVLSGGSTITSYNVYYTKLSSSGTQVRLQESGPGLVKPSQTLSLTCTVSGGSISSGGYYWSWIRQHPGKGLEWIGYIYYSGSTYYNPSLESRVTISVDTSKNQFSLKLSSVTAADTAVYYCARYSSIDAFEIWGQGTMVTVSS
For the molecule B2, the binding result in assay [1] is “binds”.

B3: antiEphA5_F31 scFv (scFv)
scFv: SYELTQPPSVSVAPGKTARITCEGNNIGSKGVHWYQQKPGQAPALVVYDGSDRPSGIPERFSGSNSGNTATLTISRVEAGDEADYYCQVWDNSSDHPNYVFGTRTKLTVLSGGSTKTSYNVYYTKLSSSGTQVQLVETGGGLVQPGGSLRLSCAASGFTFSSYAMSWVRQAPGKGLEWVSAISGSGGSTYYADSVKGRFTISRDNSKNTLYLQMNSLRAEDTAVYYCARVAAGDYWGQGTLVTVSS
In the case of B3, the binding result in assay [2] is reported as “binds”.

B4: antiEphA5_T22 scFv (scFv)
scFv: QPVLTQSSSLSASPGASVSLTCTLRSGINVGPYRMYWYQQKPGSPPQYLLSYKSDSDTQQASGVPSRFSGSKDASANAGILLISGLQSEDEADYYCMIWHNNAVVFGGGTKLTVLSGGSTITSYNVYYTKLSSSGTQVQLVQSGTEVKKPGASVKVSCKVSGYSLSELSMHWVRQAPGKGLEWMGSFDPEDGETTYAQRFQGRVTMTEDTSTDTAYMELRSLTSDDTAVYYCAREIWSGYAYFDLWGRGTLVTVSS
Take B4: the binding result in assay [2] is on record as “binds”.
